Test results as given in PMC5362816.
One block for each binder: values may come before it.

Biological target: CaM-agarose (Sigma), P62157
Experiment: pull-down; CaM-agarose (Sigma) incubated with HEK293 lysate expressing a V5-His-tagged TRP channel; 20 mM Tris-HCl pH 7.4, 150 mM NaCl, 1% NP-40, 4 °C; 1 mM Ca2+ (Fig. 2A) or 2 mM Ca2+ (Fig. 2B); blot with anti-V5
Conditions: remark: other sources report otherwise

- relative binding to CaM (normalized by total input): 0.9
B1: TRPM8 (V5-His tagged), Q8R455 1-1104 (natural protein)
chain: MSFEGARLSMRSRRNGTLGSTRTLYSSVSRSTDVSYSESDLVNFIQANFKKRECVFFTRDSKAMESICKCGYAQSQHIEGTQINQNEKWNYKKHTKEFPTDAFGDIQFETLGKKGKYLRLSCDTDSETLYELLTQHWHLKTPNLVISVTGGAKNFALKPRMRKIFSRLIYIAQSKGAWILTGGTHYGLMKYIGEVVRDNTISRNSEENIVAIGIAAWGMVSNRDTLIRNCDDEGHFSAQYIMDDFMRDPLYILDNNHTHLLLVDNGCHGHPTVEAKLRNQLEKYISERTSQDSNYGGKIPIVCFAQGGGRETLKAINTSVKSKIPCVVVEGSGQIADVIASLVEVEDVLTSSMVKEKLVRFLPRTVSRLPEEEIESWIKWLKEILESPHLLTVIKMEEAGDEVVSSAISYALYKAFSTNEQDKDNWNGQLKLLLEWNQLDLASDEIFTNDRRWESADLQEVMFTALIKDRPKFVRLFLENGLNLQKFLTNEVLTELFSTHFSTLVYRNLQIAKNSYNDALLTFVWKLVANFRRSFWKEDRSSREDLDVELHDASLTTRHPLQALFIWAILQNKKELSKVIWEQTKGCTLAALGASKLLKTLAKVKNDINAAGESEELANEYETRAVELFTECYSSDEDLAEQLLVYSCEAWGGSNCLELAVEATDQHFIAQPGVQNFLSKQWYGEISRDTKNWKIILCLFIIPLVGCGLVSFRKKPIDKHKKLLWYYVAFFTSPFVVFSWNVVFYIAFLLLFAYVLLMDFHSVPHTPELILYALVFVLFCDEVRQWYMNGVNYFTDLWNVMDTLGLFYFIAGIVFRLHSSNKSSLYSGRVIFCLDYIIFTLRLIHIFTVSRNLGPKIIMLQRMLIDVFFFLFLFAVWMVAFGVARQGILRQNEQRWRWIFRSVIYEPYLAMFGQVPSDVDSTTYDFSHCTFSGNESKPLCVELDEYNLPRFPEWITIPLVCIYMLSTNILLVNLLVAMFGYTVGIVQENNDQVWKFQRYFLVQEYCNRLNIPFPFVVFAYFYMVVKKCFKCCCKEKNTESSACCFRNEDNETLAWEGVMKENYLVKINTKANDNAEEMRHRFRQLDTKLNDLKGLLKEIANKIK
modifications: here or on the partner: coupled to agarose

- relative binding to CaM (normalized by total input): 0.8
B2: TRPV2 (V5-His tagged), Q9WUD2 1-761 (natural protein)
chain: MTSASSPPAFRLETSDGDEEGNAEVNKGKQEPPPMESPFQREDRNSSPQIKVNLNFIKRPPKNTSAPSQQEPDRFDRDRLFSVVSRGVPEELTGLLEYLRWNSKYLTDSAYTEGSTGKTCLMKAVLNLQDGVNACIMPLLQIDKDSGNPKLLVNAQCTDEFYQGHSALHIAIEKRSLQCVKLLVENGADVHLRACGRFFQKHQGTCFYFGELPLSLAACTKQWDVVTYLLENPHQPASLEATDSLGNTVLHALVMIADNSPENSALVIHMYDGLLQMGARLCPTVQLEEISNHQGLTPLKLAAKEGKIEIFRHILQREFSGPYQPLSRKFTEWCYGPVRVSLYDLSSVDSWEKNSVLEIIAFHCKSPNRHRMVVLEPLNKLLQEKWDRLVSRFFFNFACYLVYMFIFTVVAYHQPSLDQPAIPSSKATFGESMLLLGHILILLGGIYLLLGQLWYFWRRRLFIWISFMDSYFEILFLLQALLTVLSQVLRFMETEWYLPLLVLSLVLGWLNLLYYTRGFQHTGIYSVMIQKVILRDLLRFLLVYLVFLFGFAVALVSLSREARSPKAPEDNNSTVTEQPTVGQEEEPAPYRSILDASLELFKFTIGMGELAFQEQLRFRGVVLLLLLAYVLLTYVLLLNMLIALMSETVNHVADNSWSIWKLQKAISVLEMENGYWWCRRKKHREGRLLKVGTRGDGTPDERWCFRVEEVNWAAWEKTLPTLSEDPSGPGITGNKKNPTSKPGKNSASEEDHLPLQVLQSP
modifications: here or on the partner: coupled to agarose
